Measured values published in paper PMC2830701 (The EMBO Journal, 2009).

Molecular target: Bovine Hsc70 (1–554) (bovine, UniProt P19120 1-554)
Experiment: co-sedimentation

Bovine Hsc70 (1–554), sequence (P19120 1-554): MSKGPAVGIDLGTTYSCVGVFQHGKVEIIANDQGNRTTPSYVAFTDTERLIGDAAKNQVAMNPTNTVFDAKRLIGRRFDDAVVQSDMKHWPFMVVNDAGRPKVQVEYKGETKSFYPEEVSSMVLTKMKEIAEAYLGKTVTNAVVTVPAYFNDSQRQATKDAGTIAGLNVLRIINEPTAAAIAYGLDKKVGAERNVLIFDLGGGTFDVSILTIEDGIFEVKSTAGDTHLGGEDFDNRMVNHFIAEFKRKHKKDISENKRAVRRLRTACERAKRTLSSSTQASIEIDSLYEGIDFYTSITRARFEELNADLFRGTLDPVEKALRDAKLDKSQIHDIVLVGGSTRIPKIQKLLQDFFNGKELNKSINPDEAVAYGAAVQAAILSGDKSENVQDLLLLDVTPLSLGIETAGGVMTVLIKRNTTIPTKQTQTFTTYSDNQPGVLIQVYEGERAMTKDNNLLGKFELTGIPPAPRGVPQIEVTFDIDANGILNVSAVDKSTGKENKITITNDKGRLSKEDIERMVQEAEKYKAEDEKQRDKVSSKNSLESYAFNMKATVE

B1: Bovine auxilin (547–910) (domain or fragment, UniProt Q27974 547-910, looked up)
chain: PSGPTSTQSTPRRSATSTSASPTLRVGEGATFDPFGAPSKPSGQDLLGSFLNTASASSDPFLQPTRSPSPTVHASSTPAVNIQPDVSGAWDWHTKPGGFGMGSKSAATSPTGSSHGTPTHQNKPQTLDPFADLGTLGGSSFASKPSTPTGLGGGFPPLSSPQKASPQPMGGGWQQGGGYNWQQTQSKPQSSMPHSSPQNRPNYNVSFSSMPGGQNERGKAAANLEGKQKAADFEDLLSGQGFNAHKDKKGPRTIAEMRKEEMAKEMDPEKLKILEWIEGKERNIRALLSTMHTVLWAGETKWKPVGMADLVTPEQVKKVYRKAVLVVHPDKATGQPYEQYAKMIFMELNDAWSEFENQGQKPLY
binding result: binds
